Laboratory results as given in patent publication US20130011380A1.
Several values for one entry are separate records, joined by “and”; a condition that tells them apart may be missing. Equal entries are not always repeated. Each block holds one substance with its values, some of them ahead of it.

Experiments:
Experiment in all cases: anti-Flag IP-MS, mES nuclear extract
Hdlbp (mouse) = Hdlbp (mouse) (UniProt Q8VDJ3)
Col18a1 (mouse) = Col18a1 (mouse) (UniProt P39061)
Akap8 (mouse) = Akap8 (mouse) (UniProt Q9DBR0)
Vdac1 (mouse) = Vdac1 (mouse) (UniProt Q60932)
Calu (mouse) = Calu (mouse) (UniProt O35887)
Cbx1 (mouse) = Cbx1 (mouse) (UniProt P83917)
Dnmt3b (mouse) = Dnmt3b (mouse) (UniProt O88509)
Ncapg (mouse) = Ncapg (mouse) (UniProt E9PWG6)
Psmc2 (mouse) = Psmc2 (mouse) (UniProt P46471)
Spna2 (mouse) = Spna2 (mouse) (UniProt P16546)
Dnajb6 (mouse) = Dnajb6 (mouse) (UniProt O54946)
Prdx6 (mouse) = Prdx6 (mouse) (UniProt O08709)
Mtap1b (mouse) = Mtap1b (mouse) (UniProt P14873)
Pum2 (mouse) = Pum2 (mouse) (UniProt Q80U58)
Rangap1 (mouse) = Rangap1 (mouse) (UniProt P46061)
Tubb6 (mouse) = Tubb6 (mouse) (UniProt Q922F4)
Cpsf1 (mouse) = Cpsf1 (mouse) (UniProt Q9EPU4)
Ranbp2 (mouse) = Ranbp2 (mouse) (UniProt Q9ERU9)
Ogt (mouse) = Ogt (mouse) (UniProt Q8CGY8)
Tex10 (mouse) = Tex10 (mouse) (UniProt Q3URQ0)
Ranbp1 (mouse) = Ranbp1 (mouse) (UniProt P34022)
Zfp281 (mouse) = Zfp281 (mouse) (UniProt Q99LI5)
Impdh2 (mouse) = Impdh2 (mouse) (UniProt P24547)
Psmd2 (mouse) = Psmd2 (mouse) (UniProt Q8VDM4)
Uba1 (mouse) = Uba1 (mouse) (UniProt Q02053)
Tet1 (mouse) = Tet1 (mouse) (UniProt Q3URK3)
Cct6a (mouse) = Cct6a (mouse) (UniProt P80317)
Cttn (mouse) = Cttn (mouse) (UniProt Q60598)
Dnmt3l (mouse) = Dnmt3l (mouse) (UniProt Q9CWR8)
Kpnb1 (mouse) = Kpnb1 (mouse) (UniProt P70168)
Cct2 (mouse) = Cct2 (mouse) (UniProt P80314)
Mcm4 (mouse) = Mcm4 (mouse) (UniProt P49717)
Tufm (mouse) = Tufm (mouse) (UniProt Q8BFR5)
Ruvbl2 (mouse) = Ruvbl2 (mouse) (UniProt Q9WTM5)
Aars (mouse) = Aars (mouse) (UniProt Q8BGQ7)
Smc2 (mouse) = Smc2 (mouse) (UniProt Q8CG48)
Smarca5 (mouse) = Smarca5 (mouse) (UniProt Q91ZW3)
Zc3h18 (mouse) = Zc3h18 (mouse) (UniProt Q0P678)
Dnaja1 (mouse) = Dnaja1 (mouse) (UniProt P63037)
[1] = target: LOC100045999; Ran (mouse) (UniProt P62827)

Mtap1b (mouse), sequence (P14873 2-2464 limits assumed): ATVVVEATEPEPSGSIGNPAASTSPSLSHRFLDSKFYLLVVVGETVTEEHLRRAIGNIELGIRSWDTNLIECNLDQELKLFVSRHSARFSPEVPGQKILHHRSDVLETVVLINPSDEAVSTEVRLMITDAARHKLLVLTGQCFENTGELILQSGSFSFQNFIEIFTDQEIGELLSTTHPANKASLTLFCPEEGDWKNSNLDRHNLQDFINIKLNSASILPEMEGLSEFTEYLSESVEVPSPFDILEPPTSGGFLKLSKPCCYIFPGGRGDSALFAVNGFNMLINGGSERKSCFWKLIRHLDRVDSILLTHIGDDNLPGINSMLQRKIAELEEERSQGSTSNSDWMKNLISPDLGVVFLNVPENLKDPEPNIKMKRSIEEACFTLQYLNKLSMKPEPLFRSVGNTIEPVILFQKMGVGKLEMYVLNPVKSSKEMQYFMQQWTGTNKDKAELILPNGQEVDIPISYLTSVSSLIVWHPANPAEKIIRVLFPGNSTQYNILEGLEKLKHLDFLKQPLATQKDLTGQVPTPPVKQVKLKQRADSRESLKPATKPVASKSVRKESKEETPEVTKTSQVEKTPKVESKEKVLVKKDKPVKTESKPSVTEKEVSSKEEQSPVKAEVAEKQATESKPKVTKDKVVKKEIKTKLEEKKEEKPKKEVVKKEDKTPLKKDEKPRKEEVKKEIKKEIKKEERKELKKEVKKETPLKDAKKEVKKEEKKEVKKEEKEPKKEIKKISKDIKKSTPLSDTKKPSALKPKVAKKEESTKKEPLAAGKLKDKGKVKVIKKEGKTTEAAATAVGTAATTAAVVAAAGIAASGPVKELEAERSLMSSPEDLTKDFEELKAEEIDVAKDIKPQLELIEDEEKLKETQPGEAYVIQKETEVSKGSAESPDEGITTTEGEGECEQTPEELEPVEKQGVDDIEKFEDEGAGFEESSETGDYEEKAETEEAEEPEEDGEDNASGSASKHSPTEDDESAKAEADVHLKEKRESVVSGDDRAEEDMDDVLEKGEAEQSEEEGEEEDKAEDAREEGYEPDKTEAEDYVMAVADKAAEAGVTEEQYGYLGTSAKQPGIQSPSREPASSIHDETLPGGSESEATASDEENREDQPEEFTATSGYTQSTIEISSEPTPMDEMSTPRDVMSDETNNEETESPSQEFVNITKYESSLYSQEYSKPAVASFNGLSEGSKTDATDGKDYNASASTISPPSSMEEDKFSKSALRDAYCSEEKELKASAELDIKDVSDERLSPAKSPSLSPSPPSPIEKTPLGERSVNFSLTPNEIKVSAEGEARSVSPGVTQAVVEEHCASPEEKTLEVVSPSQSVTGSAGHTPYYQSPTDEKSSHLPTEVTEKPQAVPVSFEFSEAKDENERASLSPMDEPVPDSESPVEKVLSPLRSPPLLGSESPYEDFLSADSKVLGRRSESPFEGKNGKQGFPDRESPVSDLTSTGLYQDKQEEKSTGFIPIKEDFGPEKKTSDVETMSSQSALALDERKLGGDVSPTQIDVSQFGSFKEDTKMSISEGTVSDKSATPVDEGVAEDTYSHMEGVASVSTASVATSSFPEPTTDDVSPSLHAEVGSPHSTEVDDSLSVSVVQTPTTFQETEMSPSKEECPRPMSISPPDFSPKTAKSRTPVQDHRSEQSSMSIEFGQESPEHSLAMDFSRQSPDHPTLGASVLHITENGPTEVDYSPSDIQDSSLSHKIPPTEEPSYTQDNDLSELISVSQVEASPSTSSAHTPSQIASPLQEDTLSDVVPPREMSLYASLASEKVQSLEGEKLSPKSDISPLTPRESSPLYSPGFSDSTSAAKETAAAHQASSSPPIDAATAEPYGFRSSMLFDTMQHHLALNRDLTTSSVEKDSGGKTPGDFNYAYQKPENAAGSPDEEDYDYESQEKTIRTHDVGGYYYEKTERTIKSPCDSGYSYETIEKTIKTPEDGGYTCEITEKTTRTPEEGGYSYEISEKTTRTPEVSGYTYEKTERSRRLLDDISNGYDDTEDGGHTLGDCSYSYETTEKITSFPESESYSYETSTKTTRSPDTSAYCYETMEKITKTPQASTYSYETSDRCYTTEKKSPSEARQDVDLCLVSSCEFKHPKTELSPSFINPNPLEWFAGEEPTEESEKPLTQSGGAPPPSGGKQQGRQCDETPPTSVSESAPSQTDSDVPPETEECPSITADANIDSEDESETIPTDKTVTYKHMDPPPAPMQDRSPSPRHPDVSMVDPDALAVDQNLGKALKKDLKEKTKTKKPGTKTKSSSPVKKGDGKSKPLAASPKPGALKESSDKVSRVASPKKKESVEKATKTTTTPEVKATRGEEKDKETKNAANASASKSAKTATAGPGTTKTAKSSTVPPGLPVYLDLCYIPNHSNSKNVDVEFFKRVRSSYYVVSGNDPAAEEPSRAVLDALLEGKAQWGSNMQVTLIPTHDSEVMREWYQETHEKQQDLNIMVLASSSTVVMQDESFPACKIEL
Prdx6 (mouse), sequence (O08709 2-224 limits assumed): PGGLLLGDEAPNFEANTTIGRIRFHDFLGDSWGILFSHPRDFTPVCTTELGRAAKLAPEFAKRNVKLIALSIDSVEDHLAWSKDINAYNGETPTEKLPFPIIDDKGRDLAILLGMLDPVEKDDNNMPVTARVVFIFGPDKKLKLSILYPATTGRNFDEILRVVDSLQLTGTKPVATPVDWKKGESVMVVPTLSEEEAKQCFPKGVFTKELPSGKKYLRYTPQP
Smc2 (mouse), sequence (Q8CG48 whole entry): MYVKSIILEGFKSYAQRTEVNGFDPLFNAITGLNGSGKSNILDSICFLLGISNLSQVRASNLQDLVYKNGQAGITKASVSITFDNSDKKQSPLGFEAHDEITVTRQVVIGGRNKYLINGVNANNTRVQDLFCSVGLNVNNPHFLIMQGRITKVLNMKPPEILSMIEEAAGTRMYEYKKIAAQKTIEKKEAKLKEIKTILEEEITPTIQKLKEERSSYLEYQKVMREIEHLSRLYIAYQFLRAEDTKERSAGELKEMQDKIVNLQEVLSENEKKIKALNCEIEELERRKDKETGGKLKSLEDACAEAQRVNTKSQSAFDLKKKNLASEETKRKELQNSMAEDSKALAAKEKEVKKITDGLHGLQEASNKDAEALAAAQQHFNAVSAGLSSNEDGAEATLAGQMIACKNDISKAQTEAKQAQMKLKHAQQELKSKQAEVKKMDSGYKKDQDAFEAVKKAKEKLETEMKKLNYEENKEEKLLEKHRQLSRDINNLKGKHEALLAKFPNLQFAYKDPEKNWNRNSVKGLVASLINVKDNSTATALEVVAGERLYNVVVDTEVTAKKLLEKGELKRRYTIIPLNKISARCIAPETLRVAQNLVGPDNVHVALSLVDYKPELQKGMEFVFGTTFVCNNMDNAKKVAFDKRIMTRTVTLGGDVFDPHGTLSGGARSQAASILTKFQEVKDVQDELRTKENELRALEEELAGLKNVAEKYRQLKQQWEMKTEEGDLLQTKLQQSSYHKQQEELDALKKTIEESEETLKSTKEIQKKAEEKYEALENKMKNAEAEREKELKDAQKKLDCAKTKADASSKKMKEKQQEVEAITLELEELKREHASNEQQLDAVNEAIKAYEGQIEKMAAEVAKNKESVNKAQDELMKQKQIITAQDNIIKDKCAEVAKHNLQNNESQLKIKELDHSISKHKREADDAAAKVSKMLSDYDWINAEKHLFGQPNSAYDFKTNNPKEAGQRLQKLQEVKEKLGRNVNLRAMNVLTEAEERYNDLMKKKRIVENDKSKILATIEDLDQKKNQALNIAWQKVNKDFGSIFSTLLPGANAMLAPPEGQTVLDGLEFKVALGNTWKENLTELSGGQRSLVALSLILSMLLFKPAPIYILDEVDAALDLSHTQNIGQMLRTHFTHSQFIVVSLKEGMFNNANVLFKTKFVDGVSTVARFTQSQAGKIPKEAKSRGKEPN
Ogt (mouse), sequence (Q8CGY8 2-1046 limits assumed): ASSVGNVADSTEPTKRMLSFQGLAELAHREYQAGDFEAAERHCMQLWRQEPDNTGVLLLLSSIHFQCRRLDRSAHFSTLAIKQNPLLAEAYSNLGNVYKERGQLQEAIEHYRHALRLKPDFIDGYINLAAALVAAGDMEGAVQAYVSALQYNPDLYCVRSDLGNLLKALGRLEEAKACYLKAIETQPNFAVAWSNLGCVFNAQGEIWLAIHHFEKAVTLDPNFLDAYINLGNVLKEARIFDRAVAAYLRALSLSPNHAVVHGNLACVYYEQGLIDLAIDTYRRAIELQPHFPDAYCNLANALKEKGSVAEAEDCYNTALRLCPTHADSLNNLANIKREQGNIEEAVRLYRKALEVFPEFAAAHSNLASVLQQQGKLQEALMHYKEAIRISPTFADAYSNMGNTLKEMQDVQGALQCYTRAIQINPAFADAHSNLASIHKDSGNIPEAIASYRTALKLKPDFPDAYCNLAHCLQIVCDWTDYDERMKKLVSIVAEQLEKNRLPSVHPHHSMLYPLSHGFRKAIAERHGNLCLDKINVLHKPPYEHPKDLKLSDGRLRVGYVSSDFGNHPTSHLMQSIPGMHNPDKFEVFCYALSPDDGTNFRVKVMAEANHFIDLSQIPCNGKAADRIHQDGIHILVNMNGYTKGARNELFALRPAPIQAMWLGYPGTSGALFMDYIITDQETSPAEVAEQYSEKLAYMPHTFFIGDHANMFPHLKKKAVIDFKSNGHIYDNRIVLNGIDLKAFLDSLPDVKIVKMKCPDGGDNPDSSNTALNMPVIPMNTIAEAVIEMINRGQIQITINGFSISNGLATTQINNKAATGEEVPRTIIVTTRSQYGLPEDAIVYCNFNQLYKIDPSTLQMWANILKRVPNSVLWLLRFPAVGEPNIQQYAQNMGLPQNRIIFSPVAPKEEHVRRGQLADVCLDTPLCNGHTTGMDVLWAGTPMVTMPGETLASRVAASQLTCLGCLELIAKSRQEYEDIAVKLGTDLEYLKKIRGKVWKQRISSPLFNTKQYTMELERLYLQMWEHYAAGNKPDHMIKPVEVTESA
human AID containing two tandem Flag tags (Flag-human AID), sequence (Q9GZX7 whole entry): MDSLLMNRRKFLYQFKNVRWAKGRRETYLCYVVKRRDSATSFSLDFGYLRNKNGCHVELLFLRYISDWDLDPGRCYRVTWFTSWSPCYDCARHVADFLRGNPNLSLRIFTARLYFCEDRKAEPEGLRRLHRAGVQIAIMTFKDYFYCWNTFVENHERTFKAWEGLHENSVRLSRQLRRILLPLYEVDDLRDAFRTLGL

Nucleus peptide (Hdlbp (mouse)): 1 peptides | Nucleus spectra (Hdlbp (mouse)): 1 spectra | Nucleus peptide (Col18a1 (mouse)): 1 peptides | Nucleus spectra (Col18a1 (mouse)): 1 spectra | Nucleus peptide (Akap8 (mouse)): 0 peptides | Nucleus spectra (Akap8 (mouse)): 0 spectra | Nucleus peptide (Vdac1 (mouse)): 1 peptides | Nucleus spectra (Vdac1 (mouse)): 1 spectra | Nucleus peptide (Calu (mouse)): 0 peptides | Nucleus spectra (Calu (mouse)): 0 spectra | Nucleus peptide (Cbx1 (mouse)): 1 peptides | Nucleus spectra (Cbx1 (mouse)): 4 spectra | Nucleus peptide (Dnmt3b (mouse)): 0 peptides | Nucleus spectra (Dnmt3b (mouse)): 0 spectra | Nucleus peptide (Ncapg (mouse)): 0 peptides | Nucleus spectra (Ncapg (mouse)): 0 spectra | Nucleus peptide (Psmc2 (mouse)): 1 peptides | Nucleus spectra (Psmc2 (mouse)): 1 spectra | Nucleus peptide (Spna2 (mouse)): 5 peptides | Nucleus spectra (Spna2 (mouse)): 9 spectra | Nucleus peptide (Dnajb6 (mouse)): 1 peptides | Nucleus spectra (Dnajb6 (mouse)): 2 spectra | Nucleus peptide (Prdx6 (mouse)): 1 peptides | Nucleus spectra (Prdx6 (mouse)): 1 spectra | Nucleus peptide (Mtap1b (mouse)): 0 peptides | Nucleus spectra (Mtap1b (mouse)): 0 spectra | Nucleus peptide (Pum2 (mouse)): 1 peptides | Nucleus spectra (Pum2 (mouse)): 1 spectra | Nucleus peptide (Rangap1 (mouse)): 0 peptides | Nucleus spectra (Rangap1 (mouse)): 0 spectra | Nucleus peptide (Tubb6 (mouse)): 1 peptides | Nucleus spectra (Tubb6 (mouse)): 1 spectra | Nucleus peptide (Cpsf1 (mouse)): 0 peptides | Nucleus spectra (Cpsf1 (mouse)): 0 spectra | Nucleus peptide (Ranbp2 (mouse)): 8 peptides | Nucleus spectra (Ranbp2 (mouse)): 12 spectra | Nucleus peptide (Ogt (mouse)): 0 peptides | Nucleus spectra (Ogt (mouse)): 0 spectra | Nucleus peptide (Tex10 (mouse)): 1 peptides | Nucleus spectra (Tex10 (mouse)): 3 spectra | Nucleus peptide (Ranbp1 (mouse)): 1 peptides | Nucleus spectra (Ranbp1 (mouse)): 2 spectra | Nucleus peptide (Zfp281 (mouse)): 3 peptides | Nucleus spectra (Zfp281 (mouse)): 5 spectra | Nucleus peptide (Impdh2 (mouse)): 8 peptides | Nucleus spectra (Impdh2 (mouse)): 17 spectra | Nucleus peptide (Psmd2 (mouse)): 1 peptides | Nucleus spectra (Psmd2 (mouse)): 1 spectra | Nucleus peptide (Uba1 (mouse)): 3 peptides | Nucleus spectra (Uba1 (mouse)): 5 spectra | Nucleus peptide (Tet1 (mouse)): 1 peptides | Nucleus peptide (Cct6a (mouse)): 6 peptides | Nucleus spectra (Cct6a (mouse)): 9 spectra | Nucleus peptide (Cttn (mouse)): 1 peptides | Nucleus spectra (Cttn (mouse)): 2 spectra | Nucleus peptide (Dnmt3l (mouse)): 2 peptides | Nucleus spectra (Dnmt3l (mouse)): 4 spectra | Nucleus peptide (Kpnb1 (mouse)): 5 peptides | Nucleus spectra (Kpnb1 (mouse)): 13 spectra | Nucleus peptide (Cct2 (mouse)): 2 peptides | Nucleus spectra (Cct2 (mouse)): 4 spectra | Nucleus peptide (Mcm4 (mouse)): 2 peptides | Nucleus spectra (Mcm4 (mouse)): 2 spectra | Nucleus peptide (Tufm (mouse)): 6 peptides | Nucleus spectra (Tufm (mouse)): 11 spectra | Nucleus peptide (Ruvbl2 (mouse)): 4 peptides | Nucleus spectra (Ruvbl2 (mouse)): 10 spectra | Nucleus peptide (Aars (mouse)): 3 peptides | Nucleus spectra (Aars (mouse)): 4 spectra | Nucleus peptide (Smc2 (mouse)): 4 peptides | Nucleus spectra (Smc2 (mouse)): 6 spectra | Nucleus peptide (Smarca5 (mouse)): 8 peptides | Nucleus spectra (Smarca5 (mouse)): 15 spectra | Nucleus peptide (Zc3h18 (mouse)): 3 peptides and 1 peptides | Nucleus peptide (Dnaja1 (mouse)): 3 peptides | Nucleus spectra (Dnaja1 (mouse)): 5 spectra | Nucleus peptide [1]: 1 peptides | Nucleus spectra [1]: 2 spectra
Substance: 2x Flag tag only (control) (peptide)

Nucleus peptide (Hdlbp (mouse)): 3 peptides | Nucleus spectra (Hdlbp (mouse)): 5 spectra | Nucleus peptide (Col18a1 (mouse)): 4 peptides | Nucleus spectra (Col18a1 (mouse)): 5 spectra | Nucleus peptide (Akap8 (mouse)): 4 peptides | Nucleus spectra (Akap8 (mouse)): 12 spectra | Nucleus peptide (Vdac1 (mouse)): 4 peptides | Nucleus spectra (Vdac1 (mouse)): 5 spectra | Nucleus peptide (Calu (mouse)): 3 peptides | Nucleus spectra (Calu (mouse)): 6 spectra | Nucleus peptide (Cbx1 (mouse)): 2 peptides | Nucleus spectra (Cbx1 (mouse)): 12 spectra | Nucleus peptide (Dnmt3b (mouse)): 4 peptides | Nucleus spectra (Dnmt3b (mouse)): 9 spectra | Nucleus peptide (Ncapg (mouse)): 4 peptides | Nucleus spectra (Ncapg (mouse)): 9 spectra | Nucleus peptide (Psmc2 (mouse)): 3 peptides | Nucleus spectra (Psmc2 (mouse)): 7 spectra | Nucleus peptide (Spna2 (mouse)): 14 peptides | Nucleus spectra (Spna2 (mouse)): 28 spectra | Nucleus peptide (Dnajb6 (mouse)): 5 peptides | Nucleus spectra (Dnajb6 (mouse)): 17 spectra | Nucleus peptide (Prdx6 (mouse)): 3 peptides | Nucleus spectra (Prdx6 (mouse)): 3 spectra | Nucleus peptide (Mtap1b (mouse)): 11 peptides | Nucleus spectra (Mtap1b (mouse)): 24 spectra | Nucleus peptide (Pum2 (mouse)): 2 peptides | Nucleus spectra (Pum2 (mouse)): 5 spectra | Nucleus peptide (Rangap1 (mouse)): 10 peptides | Nucleus spectra (Rangap1 (mouse)): 29 spectra | Nucleus peptide (Tubb6 (mouse)): 3 peptides | Nucleus spectra (Tubb6 (mouse)): 5 spectra | Nucleus peptide (Cpsf1 (mouse)): 4 peptides | Nucleus spectra (Cpsf1 (mouse)): 8 spectra | Nucleus peptide (Ranbp2 (mouse)): 57 peptides | Nucleus spectra (Ranbp2 (mouse)): 160 spectra | Nucleus peptide (Ogt (mouse)): 7 peptides | Nucleus spectra (Ogt (mouse)): 12 spectra | Nucleus peptide (Tex10 (mouse)): 6 peptides | Nucleus spectra (Tex10 (mouse)): 12 spectra | Nucleus peptide (Ranbp1 (mouse)): 2 peptides | Nucleus spectra (Ranbp1 (mouse)): 7 spectra | Nucleus peptide (Zfp281 (mouse)): 14 peptides | Nucleus spectra (Zfp281 (mouse)): 49 spectra | Nucleus peptide (Impdh2 (mouse)): 12 peptides | Nucleus spectra (Impdh2 (mouse)): 37 spectra | Nucleus peptide (Psmd2 (mouse)): 5 peptides | Nucleus spectra (Psmd2 (mouse)): 12 spectra | Nucleus peptide (Uba1 (mouse)): 10 peptides | Nucleus spectra (Uba1 (mouse)): 18 spectra | Nucleus peptide (Tet1 (mouse)): 14 peptides | Nucleus spectra (Tet1 (mouse)): 41 spectra | Nucleus peptide (Cct6a (mouse)): 9 peptides | Nucleus spectra (Cct6a (mouse)): 20 spectra | Nucleus peptide (Cttn (mouse)): 4 peptides | Nucleus spectra (Cttn (mouse)): 9 spectra | Nucleus peptide (Dnmt3l (mouse)): 4 peptides | Nucleus spectra (Dnmt3l (mouse)): 10 spectra | Nucleus peptide (Kpnb1 (mouse)): 15 peptides | Nucleus spectra (Kpnb1 (mouse)): 43 spectra | Nucleus peptide (Cct2 (mouse)): 8 peptides | Nucleus spectra (Cct2 (mouse)): 17 spectra | Nucleus peptide (Mcm4 (mouse)): 6 peptides | Nucleus spectra (Mcm4 (mouse)): 13 spectra | Nucleus peptide (Tufm (mouse)): 9 peptides | Nucleus spectra (Tufm (mouse)): 25 spectra | Nucleus peptide (Ruvbl2 (mouse)): 12 peptides | Nucleus spectra (Ruvbl2 (mouse)): 31 spectra | Nucleus peptide (Aars (mouse)): 10 peptides | Nucleus spectra (Aars (mouse)): 21 spectra | Nucleus peptide (Smc2 (mouse)): 7 peptides | Nucleus spectra (Smc2 (mouse)): 16 spectra | Nucleus peptide (Smarca5 (mouse)): 16 peptides | Nucleus spectra (Smarca5 (mouse)): 45 spectra | Nucleus peptide (Zc3h18 (mouse)): 5 peptides and 2 peptides | Nucleus spectra (Zc3h18 (mouse)): 20 spectra and 8 spectra | Nucleus peptide (Dnaja1 (mouse)): 13 peptides | Nucleus spectra (Dnaja1 (mouse)): 49 spectra | Nucleus peptide [1]: 3 peptides | Nucleus spectra [1]: 9 spectra
Substance: human AID containing two tandem Flag tags (Flag-human AID) (from UniProt Q9GZX7 1-198) (enzyme)
